Measured values taken from patent publication US20210246166A1 (Bayer, published 2021).
Numbered stars: 1 amine (or outer) side, 2 acyl side, 3 side chain; on linkers, the order of the positions; unused ones are H or OH. Bridge positions count the residues as written; N and C are the ends. Square brackets hold non-standard residues; d marks the D form. Ends that are not written are not given here. (S)‑4‑Piperazine‑2‑carboxylic acid = (S)-4-piperazine-2-carboxylic acid; 4‑Aminomethylphenylacetic acid = O=C(Cc1ccc(CN[*:1])cc1)[*:2]; NHCH2(1,3-C6H4)CH2CO = O=C(Cc1cccc(CN[*:1])c1)[*:2]; Phe(3-COOH) = N[C@@H](Cc1cccc(C(=O)O)c1)C(=O)O; Oic = O=C(O)[C@@H]1C[C@@H]2CCCC[C@@H]2N1; PEG6 = NCCOCCOCCOCCOCCOCCOCCC(=O)O; tBuAla = CC(C)(C)C[C@H](N)C(=O)O; Pen = CC(C)(S)[C@H](N)C(=O)O; Orn = NCCC[C@H](N)C(=O)O; Dap = NC[C@H](N)C(=O)O; dβPro = D-beta-Proline; Sar = CNCC(=O)O

T1: recombinant rat MASP1 active protease (amino acids 302-704, C-terminal His Tag) (rat, UniProt Q8CHN8 302-704)
T1 sequence: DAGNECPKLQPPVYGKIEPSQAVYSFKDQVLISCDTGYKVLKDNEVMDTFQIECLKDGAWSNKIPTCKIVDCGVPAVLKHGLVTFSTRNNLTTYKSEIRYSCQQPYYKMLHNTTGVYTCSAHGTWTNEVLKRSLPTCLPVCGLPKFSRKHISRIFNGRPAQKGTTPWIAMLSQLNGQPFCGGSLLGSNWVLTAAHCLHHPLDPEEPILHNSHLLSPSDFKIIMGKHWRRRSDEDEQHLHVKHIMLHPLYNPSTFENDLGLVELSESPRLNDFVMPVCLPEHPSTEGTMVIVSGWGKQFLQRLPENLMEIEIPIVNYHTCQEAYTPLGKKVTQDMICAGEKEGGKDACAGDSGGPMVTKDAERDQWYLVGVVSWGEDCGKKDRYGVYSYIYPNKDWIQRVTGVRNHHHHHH

B1: Example 480: (beta-P)-IC+SRS-((tBu)A)-PPI-(Pen)+IPD-OH (peptide)
peptide: XICSRS[tBuAla]PPI[Pen]IPD-OH
modifications: disulfide 3-11; not fully specified (residue 1); printed as (beta-P)-IC + SRS-((tBu)A)-PPI-(Pen) + IPD-OH
B2: Example 483: ((N-Me)G)-IC+SRSLP-(Oic)-I-(Pen)+IP-((3-Carboxy)F)-OH (peptide)
peptide: [Sar]ICSRSLP[Oic]I[Pen]IP[Phe(3-COOH)]-OH
modifications: disulfide 3-11; N-terminus assumed
SMILES: CC[C@H](C)[C@H](NC(=O)CNC)C(=O)N[C@H]1CSSC(C)(C)[C@@H](C(=O)N[C@H](C(=O)N2CCC[C@H]2C(=O)N[C@@H](Cc2cccc(C(=O)O)c2)C(=O)O)[C@@H](C)CC)NC(=O)[C@H]([C@@H](C)CC)NC(=O)[C@@H]2C[C@@H]3CCCC[C@@H]3N2C(=O)[C@@H]2CCCN2C(=O)[C@H](CC(C)C)NC(=O)[C@H](CO)NC(=O)[C@H](CCCNC(=N)N)NC(=O)[C@H](CO)NC1=O
B3: Example 476: ((N-Me)G)-IC+SRSLP-(Oic)-I-(Pen)+IP-(4-Aminomethylphenylacetic acid)-OH (peptide)
peptide: [Sar]ICSRSLP[Oic]I[Pen]IP[4‑Aminomethylphenylacetic acid]-OH
modifications: disulfide 3-11; N-terminus assumed
SMILES: CC[C@H](C)[C@H](NC(=O)CNC)C(=O)N[C@H]1CSSC(C)(C)[C@@H](C(=O)N[C@H](C(=O)N2CCC[C@H]2C(=O)NCc2ccc(CC(=O)O)cc2)[C@@H](C)CC)NC(=O)[C@H]([C@@H](C)CC)NC(=O)[C@@H]2C[C@@H]3CCCC[C@@H]3N2C(=O)[C@@H]2CCCN2C(=O)[C@H](CC(C)C)NC(=O)[C@H](CO)NC(=O)[C@H](CCCNC(=N)N)NC(=O)[C@H](CO)NC1=O
B4: Example 469: (Orn)-IC+SRSLP-(Oic)-I-(Pen)+IPD-OH (peptide)
peptide: [Orn]ICSRSLP[Oic]I[Pen]IPD-OH
modifications: disulfide 3-11; N-terminus assumed
SMILES: CC[C@H](C)[C@H](NC(=O)[C@@H](N)CCCN)C(=O)N[C@H]1CSSC(C)(C)[C@@H](C(=O)N[C@H](C(=O)N2CCC[C@H]2C(=O)N[C@@H](CC(=O)O)C(=O)O)[C@@H](C)CC)NC(=O)[C@H]([C@@H](C)CC)NC(=O)[C@@H]2C[C@@H]3CCCC[C@@H]3N2C(=O)[C@@H]2CCCN2C(=O)[C@H](CC(C)C)NC(=O)[C@H](CO)NC(=O)[C@H](CCCNC(=N)N)NC(=O)[C@H](CO)NC1=O
B5: Example 472: ((N-Me)G)-IC+SRSLP-(Oic)-I-(Pen)+IP-(PEG5(22 atoms))-OH (peptide)
peptide: [Sar]ICSRSLP[Oic]I[Pen]IP[PEG6]-OH
modifications: disulfide 3-11; N-terminus assumed
SMILES: CC[C@H](C)[C@H](NC(=O)CNC)C(=O)N[C@H]1CSSC(C)(C)[C@@H](C(=O)N[C@H](C(=O)N2CCC[C@H]2C(=O)NCCOCCOCCOCCOCCOCCOCCC(=O)O)[C@@H](C)CC)NC(=O)[C@H]([C@@H](C)CC)NC(=O)[C@@H]2C[C@@H]3CCCC[C@@H]3N2C(=O)[C@@H]2CCCN2C(=O)[C@H](CC(C)C)NC(=O)[C@H](CO)NC(=O)[C@H](CCCNC(=N)N)NC(=O)[C@H](CO)NC1=O
B6: Example 477: ((N-Me)G)-IC+SRSLP-(Oic)-I-(Pen)+IP-(3-Aminomethylphenylacetic acid)-OH (peptide)
peptide: [Sar]ICSRSLP[Oic]I[Pen]IP[NHCH2(1,3-C6H4)CH2CO]-OH
modifications: disulfide 3-11; N-terminus assumed
SMILES: CC[C@H](C)[C@H](NC(=O)CNC)C(=O)N[C@H]1CSSC(C)(C)[C@@H](C(=O)N[C@H](C(=O)N2CCC[C@H]2C(=O)NCc2cccc(CC(=O)O)c2)[C@@H](C)CC)NC(=O)[C@H]([C@@H](C)CC)NC(=O)[C@@H]2C[C@@H]3CCCC[C@@H]3N2C(=O)[C@@H]2CCCN2C(=O)[C@H](CC(C)C)NC(=O)[C@H](CO)NC(=O)[C@H](CCCNC(=N)N)NC(=O)[C@H](CO)NC1=O
B7: Example 478: aIC+SRSLP-(Oic)-I-(Pen)-+IP-(3-Aminomethylphenylacetic acid)-OH (peptide)
peptide: [dA]ICSRSLP[Oic]I[Pen]IP[NHCH2(1,3-C6H4)CH2CO]-OH
modifications: disulfide 3-11; N-terminus assumed
SMILES: CC[C@H](C)[C@H](NC(=O)[C@@H](C)N)C(=O)N[C@H]1CSSC(C)(C)[C@@H](C(=O)N[C@H](C(=O)N2CCC[C@H]2C(=O)NCc2cccc(CC(=O)O)c2)[C@@H](C)CC)NC(=O)[C@H]([C@@H](C)CC)NC(=O)[C@@H]2C[C@@H]3CCCC[C@@H]3N2C(=O)[C@@H]2CCCN2C(=O)[C@H](CC(C)C)NC(=O)[C@H](CO)NC(=O)[C@H](CCCNC(=N)N)NC(=O)[C@H](CO)NC1=O
B8: Example 482: ((N-Me)G)-IC+SRS-((tBu)A)-PPI-(Pen)+IP-((3-Carboxy)F)-OH (peptide)
peptide: [Sar]ICSRS[tBuAla]PPI[Pen]IP[Phe(3-COOH)]-OH
modifications: disulfide 3-11; N-terminus assumed
SMILES: CC[C@H](C)[C@H](NC(=O)CNC)C(=O)N[C@H]1CSSC(C)(C)[C@@H](C(=O)N[C@H](C(=O)N2CCC[C@H]2C(=O)N[C@@H](Cc2cccc(C(=O)O)c2)C(=O)O)[C@@H](C)CC)NC(=O)[C@H]([C@@H](C)CC)NC(=O)[C@@H]2CCCN2C(=O)[C@@H]2CCCN2C(=O)[C@H](CC(C)(C)C)NC(=O)[C@H](CO)NC(=O)[C@H](CCCNC(=N)N)NC(=O)[C@H](CO)NC1=O

Columns and labels:
[1] = molecular target: recombinant rat MASP2 active protease (amino acids 296-685, C-terminal His Tag) (rat, UniProt Q9JJS8 296-685); assay: cell-based or functional assay
[2] = molecular target: T1, recombinant rat MASP1 active protease …; assay: cell-based or functional assay

Chain of recombinant rat MASP2 active protease (amino acids 296-685, C-terminal His Tag) (Q9JJS8 other isoform, or with tags, fused parts or gaps limits assumed): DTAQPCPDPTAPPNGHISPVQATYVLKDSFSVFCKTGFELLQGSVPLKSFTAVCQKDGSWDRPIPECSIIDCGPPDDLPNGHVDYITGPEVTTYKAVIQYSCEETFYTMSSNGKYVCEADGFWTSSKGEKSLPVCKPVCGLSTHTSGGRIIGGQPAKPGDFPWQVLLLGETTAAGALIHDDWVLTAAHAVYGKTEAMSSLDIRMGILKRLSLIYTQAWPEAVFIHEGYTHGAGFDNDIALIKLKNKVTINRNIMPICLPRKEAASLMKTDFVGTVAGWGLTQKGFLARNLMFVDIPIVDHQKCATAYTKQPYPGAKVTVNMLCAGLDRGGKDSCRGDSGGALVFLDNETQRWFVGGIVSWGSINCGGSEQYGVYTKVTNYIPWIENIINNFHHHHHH

Binder | rat MASP2 IC50 [1] [nM] | rat MASP1 IC50 [2] [nM]
B1 | 41 | 24
B2 | 50 | 34
[Sar]ICSRSLP[Oic]I[Pen]I[(S)‑4‑Piperazine‑2‑carboxylic acid]-OH (disulfide 3-11) [Example 474: ((N-Me))-GIC+SRSLP-(Oic)-I-(Pen)+I-((S)-4-Piperazine-2-carboxylic acid)-OH] | 26 | 87
[Sar]ICSRSLP[Oic]I[Pen]IPD[PEG4‑CH2CO2H(15atoms)]-OH (disulfide 3-11) [Example 471: ((N-Me)G)-IC+SRSLP-(Oic)-I-(Pen)+IPD-(PEG4-CH2CO2H (15 atoms))-OH] | 71 | 78
B3 | 61 | 53
B4 | 34 | 120
[Piperidin‑4‑ylacetic acid]ICSRS[tBuAla]PPICIPD-OH (disulfide 3-11) [Example 475: (Piperidin-4-ylacetic acid)-IC+SRS-((tBu)A)-PPIC+IPD-OH] | 25 | 250
B5 | 49 | 100
B6 | 123 | 154
[Sar]ICSRSLP[Oic]I[Pen]IP[PEG4‑CH2CO2H(15atoms)]-OH (disulfide 3-11) [Example 470: ((N-Me)G)-IC+SRSLP-(Oic)-I-(Pen)+IP-(PEG4-CH2CO2H (15 atoms))-OH] | 54 | 100
[dβPro]ICSRS[tBuAla]PPI[Pen]IPD-OH (disulfide 3-11) [Example 481: (beta-p)-IC+SRS-((tBu)A)-PPI-(Pen)+IPD-OH] | 36 | 20
[Sar]ICSRSLP[Oic]I[Pen]IP[Dap]-OH (disulfide 3-11; also: Dap at position 14 joined through its 3-amino group) [Example 467: ((N-Me)G)-IC+SRSLP-(Oic)-I-(Pen)+IP-(*Dap)-OH] | 70 | 170
B7 | 49 | 68
B8 | 33 | 18
